From article PMC9864776, “Synthesis of Novel Polymer-Assisted Organic-Inorganic Hybrid Nanoflowers and Their Application in Cascade Biocatalysis” (Molecules, 2023) come the findings set out here.

Substrate in the data set: OC[C@H]1OC(O)[C@H](O)[C@@H](O)[C@@H]1O
In words: purified protein. The settings on record: apparent Km of the whole cascade with free HRP, glucose 50-175 µM (all below Km), TMB 2 mM, 0.2 M acetate buffer (pH 4 in the standard assay), 20-23 °C, free enzymes. It is filed as biochemical, Aspergillus niger.

B1: glucose oxidase (GOx), Aspergillus niger type VIII (Aspergillus niger) (protein)
chain: LPHYIRSNGIEASLLTDPKDVSGRTVDYIIAGGGLTGLTTAARLTENPNISVLVIESGSYESDRGPIIEDLNAYGDIFGSSVDHAYETVELATNNQTALIRSGNGLGGSTLVNGGTWTRPHKAQVDSWETVFGNEGWNWDNVAAYSLQAERARAPNAKQIAAGHYFNASCHGVNGTVHAGPRDTGDDYSPIVKALMSAVEDRGVPTKKDFGCGDPHGVSMFPNTLHEDQVRSDAAREWLLPNYQRPNLQVLTGQYVGKVLLSQNGTTPRAVGVEFGTHKGNTHNVYAKHEVLLAAGSAVSPTILEYSGIGMKSILEPLGIDTVVDLPVGLNLQDQTTATVRSRITSAGAGQGQAAWFATFNETFGDYSEKAHELLNTKLEQWAEEAVARGGFHNTTALLIQYENYRDWIVNHNVAYSELFLDTAGVASFDVWDLLPFTRGYVHILDKDPYLHHFAYDPQYFLNELDLLGQAAATQLARNISNSGAMQTYFAGETIPGDNLAYDADLSAWTEYIPYHFRPNYHGVGTCSMMPKEMGGVVDNAARVYGVQGLRVIDGSIPPTQMSSHVMTVFYAMALKISDAILEDYASMQ
notes: commercial native enzyme, Merck/Sigma Aldrich, type VIII; free in solution, together with HRP
One may read the Km as the substrate concentration at which the rate is half of its maximum. In the case of B1, the Km is 1198 µM.
